B1: ABU-312 (antibody, V domains shown)
VH: EVQLLESGGGLVQPGGSLRLSCAASGFTFSTYAMSWVRQAPGKGLEWVSVISGSGGSTYYADSVKGRFTISRDNSKNTLYLQMNSLRAEDTAVYYCAKEYYYDSSGYYYREDAFDIWGQGTMVTVSS
VL: DIQMTQSPSAMSASVGDRVTITCRASQGISNYLAWFQQKPGKVPKRLIYAASSLQSGVPSRFSGSGSGTEFTLTISSLQPEDFATYYCLQHNSYPRTFGQGTKVEIK
B2: ABU-145 (antibody, V domains shown)
VH: QVQLQESGPGLVKPSQTLSVTCTVSGGSINRDGHYWIWIRQHPEKGLEWLGYIYSGRNTFYNPSLRSRLSISADTSKSQFSLNLHSVTAADTAVYYCAKMYSDYDDNYYGLDVWGRGTTVTVSS
VL: EIVLTQSPGTLSLSPGERATLSCRASHTISSSYLAWYQQKAGQAPRLLIYAASSRATGIPARFSGSGSGTDFTLTISRLEPEDFAVYYCQQFDNSPPWTFGRGTKVEMR
B3: ABU-317 (antibody, V domains shown)
VH: QVQLVESGGGVVQPGWSLRLSCAASGFTFSSFAMYWVRQAPGKGLEWVAVISYDGANKYYADSVKGRFTISRDNSKNTLYLQVNSLRVEDTAVYYCARGPDYYDTGGYFDLWGRGTLVTVSS
VL: QSVLTQPPSVSAAPGQKVTISCSGSSSNIGNNYVSWYQQLPGTAPKLLIYDNNKRPSGIPDRFSGSKSGTSATLGITGLQTGDEADYYCGTWDSSLSAGVFGGGTKLTVL
B4: ABU-298 (antibody, V domains shown)
VH: QVQLVQSGAEVKKPGASVKVSCKASGYTFTSYGISWVRQAPGQGLEWMGWISAYNGNTNYAQKLQGRVTMTTDTSTSTAYMELRSLRSDDTAVYYCARDESGSYYGDQAFDIWGQGTMVTVSS
VL: not shown
B5: ABU-181 (antibody, V domains shown)
VH: QVQLQESGPGLVKPSQTLSLICTVSDDSISSGSYYWSWIRQPAGKGLEWIGRIYAGESTNYNPSLKSRVIISVDTSKKQFSLRLSSVTAADTAVYYCARGAVVTPFGLDSWGQGTLVTVSS
VL: SYELTQPPSVSVSPGQTARITCSGDALPKQYAYWYQQKTGQAPVLVIYKDSERPSGIPERVSGSSSGTTVTLTISGVQAEDEADYYCQSADSSGTWVFGGGTKLTVL
B6: ABU-289 (antibody, V domains shown)
VH: QVQLVQSGAEVKKPGSSVKVSCKASGGTFSSYTISWVRQAPGQGLEWMGRIIPILGIANYAQKFQGRVTITADKSTSTAYMELSSLRSEDTAVYYCARGIVGATPGYFDYWGQGTLVTVSS
VL: EIVMTQSPATLSVSPGERATLSCRASQSVSSNLAWYQQKPGQAPRLLIYGASTRATGIPARFSGSGSGTEFTLTISSLQSEDFAVYYCQQYNNWLTFGGGTKVEIK
B7: ABU-205 (antibody, V domains shown)
VH: QVQLVQSGAEVKKPGSSVKVSCKASGGTFSSYAISWVRQAPGQGLEWMGRIIPIFGTANYAQKFQGRVTITADESTSTAYMELSSLRSEDTAVYYCARAAYYYDSSGYGWFDPWGQGTLVTVSS
VL: not shown
B8: ABU-254 (antibody, V domains shown)
VH: B7 VH
VL: not shown
B9: ABU-210 (antibody, V domains shown)
VH: EVQLVESGGGLVQPGRSLRLSCAASGFTFDDYAMHWVRQAPGKGLEWVSGISWNSGTIGYEDSVKGRFIISRDNAKNSLYLQMNSLRAEDTALYYCAKEPLFGETYGMDVWGQGTTVTVSS
VL: QSALTQPASVSGSPGQSITISCTGTSSDVGGYNYVSWYQHHPGKAPKLMIYEVSNRPSGVSNRFSGSKSANTASLTISGLQTEDEADYYCSSYTSISTVLFGGGTKLTVL
B10: ABU-316 (antibody, V domains shown)
VH: QVQLVESGGGVVQPGRSLRLSCAASGFTFSSYGMHWVRQAPGKGLEWVAVISYDGSNKYYVDSVKGRFTISRDNSKNTLYLQMNSLRAEDTAVYYCAKDPYYYGSGSSNFFDYWGQGTLVTVSS
VL: SYVLTQPPSVSVAPGKTARITCGGNNIGSKSVHWYQQKPGQAPVLVVYDDNDRPSGIPDRFSGSNSGNTATLTISRVEAGDEADYYCQVWDSSSDHYWVFGGGTKLTVL
B11: ABU-319 (antibody, V domains shown)
VH: B10 VH with S52W, V61A, D99G, P100E, Y101G, Y102V, S108R, N109Y, F111L
VL: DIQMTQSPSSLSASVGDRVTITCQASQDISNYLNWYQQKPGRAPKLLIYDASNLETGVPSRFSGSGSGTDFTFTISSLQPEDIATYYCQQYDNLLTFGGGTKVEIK
B12: ABU-305 (antibody, V domains shown)
VH: QVQLVQSGAEVKKPGASVKVSCKASGYTFTSYGISWVRQAPGQGLEWMGWISAYNGNTNYAQKLQGRVTMTTDTSTSTAYMELRSLRSDDTAVYYCARDGHSAWGAFDIWGQGTMVTVSS
VL: not shown
B13: ABU-211 (antibody, V domains shown)
VH: EAQLVESGGGLVQPGRSLTVSCAVSGFTFDDYAMHWVRQAPGKGLEWVSSISWNSEKIAYADSVKGRFTVSRDNAKNSLYLQMTSLRPEDTALYYCARDKGSGSYYSGAYYYYMDVWGKGTTVTVSS
VL: SDALTQPPSVSVAPGKTAAITCGGDNIGSKNVHWYQQKPGQAPLLVVFDDGDRPSGIPERFSGSNSGNTATLTISRVEAGDEADYYCQVWDGGSDDRGYVFGTGTKVTVL
B14: ABU-288 (antibody, V domains shown)
VH: QVQLQESGPGLVKPSQTLSLTCTVSGGSISSGLYHWSWIRQPAGKGLEWIGRIFSSGSTAYSPSLKSRVIISADTSKNQFSLKLSSVTAADTAVYYCARDSPLKFDSFGYPLYGMDVWGQGTTVTVSS
VL: DIQMTQSPSSLSASVRDKVTITCRASQSISSCLNWYQQKPGKAPKVLIYAASSLQSGVPSRFSGSGSGTDFTLTISSVQPEDFATYYCQQSYSVPHTFGQGTKVEIK
B15: ABU-328 (antibody, V domains shown)
VH: EVQLVESGGGLVQPGGSLRLSCAASGFTVSSNYMSWVRQAPGKGLEWVSVIYSGGSTYYADSVKGRFTISRDNSKNTLYLQMNSLRAEDTAVYYCARLSGTGYGGDGGWFDPWGQGTLVTVSS
VL: QSALTQPASVSGSPGQSITISCTGTSSDVGSYNLVSWYQQHPGKAPKLMIYEVSKRPSGVSNRFSGSKSGNTASLTISGLQAEDEADYYCCSYAGSSLWVFGGGTKLTVL
B16: ABU-323 (antibody, V domains shown)
VH: EVQLVESGGGLVQPGGSLRLSCAASGFTVSSNYMSWVRQAPGKGLEWVSVIYSGGTTYYADSVKGRFTISRHNSKNTLYLQMNSLRAEDTAVYYCARDWGEYYFDYWGQGTLVTVSS
VL: not shown
B17: ABU-394 (antibody, V domains shown)
VH: B16 VH with V12I, T56S, H72D, D98S, W99Y, E101D
VL: DIQLTQSPSSLSASVGDRVTITCRASQGISSYLAWYQQKPGKAPKLLIYAASTLQSGVPSRFSGSGSGTDFTLTISSLQPEDFATYYCQQLNSFGPGTKVDIK
B18: ABU-393 (antibody, V domains shown)
VH: B16 VH with V12I, T56S, H72D, W99Y, E101D, Y103W, Y106P
VL: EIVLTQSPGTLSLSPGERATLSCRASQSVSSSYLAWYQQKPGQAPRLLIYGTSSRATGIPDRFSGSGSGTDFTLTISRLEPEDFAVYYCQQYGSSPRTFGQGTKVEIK

Substitutions are numbered along the chain they refer to.

The target of the test is biotin-labeled SARS-COV-2 RBD domain (SARS-CoV-2, UniProt P0DTC2 319-541). As to the kind of experiment: SPR, Biacore T200, biotin-RBD on SA chip, antibody as analyte.
Turning to B1, the equilibrium dissociation constant (Kd) was under 20 nM. Turning to B2, the Kd is under 10 nM. The result for B3 reads under 20 nM. Turning to B4, the Kd was under 20 nM.

Regarding B5, the Kd was under 10 nM. The result for B6 reads under 10 nM. As to B7, the equilibrium dissociation constant (Kd) is under 10 nM. The figure for B8 is under 10 nM. As to B9, the Kd was under 10 nM. Molecule B10 had a Kd of under 10 nM. The result for B11 reads under 10 nM. The result for B12 reads under 20 nM; that for B13, under 20 nM. The figure for B14 is under 1 nM. In turn, B15 yielded a Kd of under 10 nM.

In turn, B16 registered a Kd of under 20 nM.

The molecule B17 displayed a Kd of under 20 nM. The result for B18 reads under 20 nM.

The record behind these values is US20230183322A1 (PEKING UNIVERSITY, published 2023).
